Laboratory results published in the supplement of paper PMC10065799, “High-throughput profiling of sequence recognition by tyrosine kinases and SH2 domains using bacterial peptide display” (eLife, 2023).

The sequences below were run against Hck (UniProt P08631) (assay: phosphorylation enrichment, bacterial display (enrichment ratio); higher = better substrate or ligand; peptides without Tyr show the background).
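Note: 11-residue human phosphosite peptides and single-mutation variants displayed on the E. coli surface, counted by deep sequencing, each peptide's frequency after selection divided by its frequency in the unselected input library; frequency after pTyr selection over input frequency; kinase dosed for 20-30% of maximal phosphorylation in three min.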

Hck, sequence (P08631 whole entry, looked up): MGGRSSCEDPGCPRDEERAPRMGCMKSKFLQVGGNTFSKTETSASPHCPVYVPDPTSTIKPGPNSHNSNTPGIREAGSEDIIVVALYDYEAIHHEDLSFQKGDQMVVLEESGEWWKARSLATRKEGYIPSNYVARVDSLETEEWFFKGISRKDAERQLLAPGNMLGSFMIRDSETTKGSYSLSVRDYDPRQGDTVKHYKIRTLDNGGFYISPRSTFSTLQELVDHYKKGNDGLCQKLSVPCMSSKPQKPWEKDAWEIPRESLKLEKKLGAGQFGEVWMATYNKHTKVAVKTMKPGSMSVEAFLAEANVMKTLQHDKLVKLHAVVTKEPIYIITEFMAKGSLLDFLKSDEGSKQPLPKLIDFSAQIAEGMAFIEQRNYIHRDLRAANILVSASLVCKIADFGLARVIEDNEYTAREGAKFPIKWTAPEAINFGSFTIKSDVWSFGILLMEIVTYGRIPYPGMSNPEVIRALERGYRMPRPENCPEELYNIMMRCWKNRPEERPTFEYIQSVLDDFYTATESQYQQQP

Sequence	phosphorylation enrichment
YEDALYTVLHR [UNC13D_Y61]	9.13
PQGVRYTFTID [DCX_Y103_I104T_YF]	0.642
IFLADYRIMEG [ALOX12B_Y318_YF]	0.421
RGDCMYAPLLG [AR_Y269]	10.9
SGIFQYNIAKF [FOXL2_Y83_I84N_YF]	0.494
ILLAGCLVMVI [SLC28A3_Y113_Y113C]	0.51
HGDSAYHSQRH [ERBB3_Y1132_R1127H]	0.648
KILGRYYETGS [PAX2_Y72]	0.486
APGNAYGDAGF [SYP_Y250_D248N_YF]	0.433
PKEQKYSFLQD [GH1_Y68_N73D]	0.619
AMIADYMFWLG [SPATA16_Y290]	1.49
RASDFYSQQMA [GBP6_Y334_A331S_YF]	0.539
RESSGYLRLAF [MEP1A_Y481]	0.872
FPILNYKDIRK [CFAP221_Y798_M795I]	0.391
SSSGGYGGGYG [KRT19_Y61_A60G]	0.379
VTSLKYSTSPF [BRIP1_Y916_YF]	0.464
LLREWYLPDPY [SIX3_Y225_Q227P]	0.484
WQLEIYRASRP [ERCC4_Y594_R589W]	0.491
DRLASYPDKVR [KRT14_Y129_L130P]	0.387
MSRDIYSTDYY [NTRK1_Y676]	3.99
VLNKGYRMVVN [HINT1_Y94_G89V]	0.368
GKSHIYFWTLE [EML2_Y230]	0.538
KIVATYRLCSE [DNAH3_Y1586]	0.725
GRRGQYVMPSE [TTC7A_Y396_L399P]	0.41
KTTGGYAGGLS [KRT8_Y419_S417G]	0.454
NHYKIYNLYAE [PTEN_Y68_C71Y]	2.54
VEDQYYCVDCY [FHL1_Y208]	1.46
DERQPYVHMNG [IGF1R_Y1346_A1347V]	0.471
LVQAEYWHDRI [PPT1_Y185_P189R]	0.605

Each sequence was assayed against Jak2 (UniProt O60674) in the same assay as above.
Jak2, sequence (O60674 whole entry, looked up): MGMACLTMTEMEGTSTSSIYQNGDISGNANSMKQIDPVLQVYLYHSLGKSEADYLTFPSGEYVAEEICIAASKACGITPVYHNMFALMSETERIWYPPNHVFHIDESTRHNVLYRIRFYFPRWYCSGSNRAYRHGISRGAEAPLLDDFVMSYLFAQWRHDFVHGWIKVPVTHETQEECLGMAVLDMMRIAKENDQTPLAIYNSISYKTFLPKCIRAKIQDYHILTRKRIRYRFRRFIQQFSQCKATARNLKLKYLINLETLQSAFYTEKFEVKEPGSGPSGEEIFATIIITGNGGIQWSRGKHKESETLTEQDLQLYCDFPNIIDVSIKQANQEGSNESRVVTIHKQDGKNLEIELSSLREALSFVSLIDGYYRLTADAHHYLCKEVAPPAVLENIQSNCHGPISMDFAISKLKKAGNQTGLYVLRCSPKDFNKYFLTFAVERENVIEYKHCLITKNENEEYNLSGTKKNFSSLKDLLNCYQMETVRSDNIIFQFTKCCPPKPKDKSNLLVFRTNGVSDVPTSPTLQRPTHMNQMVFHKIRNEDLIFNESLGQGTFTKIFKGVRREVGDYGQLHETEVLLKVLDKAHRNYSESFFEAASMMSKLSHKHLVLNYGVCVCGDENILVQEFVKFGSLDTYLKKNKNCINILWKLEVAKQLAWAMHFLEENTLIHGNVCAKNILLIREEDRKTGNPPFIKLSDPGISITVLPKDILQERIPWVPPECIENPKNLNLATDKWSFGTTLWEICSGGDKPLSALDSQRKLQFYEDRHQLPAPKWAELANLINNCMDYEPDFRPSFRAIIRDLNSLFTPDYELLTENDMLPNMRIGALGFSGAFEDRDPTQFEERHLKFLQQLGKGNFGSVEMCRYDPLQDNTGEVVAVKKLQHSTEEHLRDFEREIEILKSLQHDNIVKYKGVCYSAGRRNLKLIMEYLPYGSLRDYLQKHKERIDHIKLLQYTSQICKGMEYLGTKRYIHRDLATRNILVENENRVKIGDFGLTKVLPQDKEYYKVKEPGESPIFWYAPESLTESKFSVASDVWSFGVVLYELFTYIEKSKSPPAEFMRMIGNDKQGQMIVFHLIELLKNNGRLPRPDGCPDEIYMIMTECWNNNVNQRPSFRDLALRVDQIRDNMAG

Sequence	phosphorylation enrichment
YEDALYTVLHR [UNC13D_Y61]	1.7
PQGVRYTFTID [DCX_Y103_I104T_YF]	1.48
IFLADYRIMEG [ALOX12B_Y318_YF]	0.782
RGDCMYAPLLG [AR_Y269]	0.743
SGIFQYNIAKF [FOXL2_Y83_I84N_YF]	0.876
ILLAGCLVMVI [SLC28A3_Y113_Y113C]	1.18
HGDSAYHSQRH [ERBB3_Y1132_R1127H]	1.03
KILGRYYETGS [PAX2_Y72]	0.952
APGNAYGDAGF [SYP_Y250_D248N_YF]	0.52
PKEQKYSFLQD [GH1_Y68_N73D]	0.809
AMIADYMFWLG [SPATA16_Y290]	3.71
RASDFYSQQMA [GBP6_Y334_A331S_YF]	0.688
RESSGYLRLAF [MEP1A_Y481]	2.85
FPILNYKDIRK [CFAP221_Y798_M795I]	0.745
SSSGGYGGGYG [KRT19_Y61_A60G]	0.479
VTSLKYSTSPF [BRIP1_Y916_YF]	0.711
LLREWYLPDPY [SIX3_Y225_Q227P]	1.04
WQLEIYRASRP [ERCC4_Y594_R589W]	0.911
DRLASYPDKVR [KRT14_Y129_L130P]	0.508
MSRDIYSTDYY [NTRK1_Y676]	1.01
VLNKGYRMVVN [HINT1_Y94_G89V]	0.433
GKSHIYFWTLE [EML2_Y230]	1.3
KIVATYRLCSE [DNAH3_Y1586]	1.02
GRRGQYVMPSE [TTC7A_Y396_L399P]	0.323
KTTGGYAGGLS [KRT8_Y419_S417G]	0.701
NHYKIYNLYAE [PTEN_Y68_C71Y]	0.664
VEDQYYCVDCY [FHL1_Y208]	1.86
DERQPYVHMNG [IGF1R_Y1346_A1347V]	0.786
LVQAEYWHDRI [PPT1_Y185_P189R]	1.25

These sequences were tested against MERTK (UniProt Q12866) in the same assay as above.
MERTK, sequence (Q12866 whole entry, looked up): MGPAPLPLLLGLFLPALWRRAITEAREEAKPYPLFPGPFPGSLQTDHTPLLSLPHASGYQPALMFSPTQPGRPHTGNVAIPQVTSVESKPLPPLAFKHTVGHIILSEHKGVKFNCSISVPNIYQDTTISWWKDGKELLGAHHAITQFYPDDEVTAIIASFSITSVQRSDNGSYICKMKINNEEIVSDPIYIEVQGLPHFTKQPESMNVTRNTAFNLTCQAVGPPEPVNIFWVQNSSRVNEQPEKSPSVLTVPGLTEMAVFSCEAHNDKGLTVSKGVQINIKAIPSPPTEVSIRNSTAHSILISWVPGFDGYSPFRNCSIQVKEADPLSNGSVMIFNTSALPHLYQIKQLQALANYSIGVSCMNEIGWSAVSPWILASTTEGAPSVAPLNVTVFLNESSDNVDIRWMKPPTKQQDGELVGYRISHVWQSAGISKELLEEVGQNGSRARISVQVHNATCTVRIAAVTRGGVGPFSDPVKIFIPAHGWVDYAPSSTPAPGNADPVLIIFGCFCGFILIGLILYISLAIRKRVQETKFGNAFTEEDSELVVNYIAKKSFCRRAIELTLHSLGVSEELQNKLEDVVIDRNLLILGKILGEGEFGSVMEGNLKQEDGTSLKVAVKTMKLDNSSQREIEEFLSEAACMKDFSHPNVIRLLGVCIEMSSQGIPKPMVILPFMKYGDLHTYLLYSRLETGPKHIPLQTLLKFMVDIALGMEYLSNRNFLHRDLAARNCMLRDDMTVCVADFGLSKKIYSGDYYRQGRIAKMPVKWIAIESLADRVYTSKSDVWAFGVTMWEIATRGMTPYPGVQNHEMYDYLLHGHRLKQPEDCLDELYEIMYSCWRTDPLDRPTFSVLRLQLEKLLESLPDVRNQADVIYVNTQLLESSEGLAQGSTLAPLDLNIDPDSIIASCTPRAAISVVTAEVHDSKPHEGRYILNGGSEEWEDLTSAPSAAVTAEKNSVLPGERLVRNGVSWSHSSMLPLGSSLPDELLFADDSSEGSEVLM

Sequence	phosphorylation enrichment
YEDALYTVLHR [UNC13D_Y61]	9.59
PQGVRYTFTID [DCX_Y103_I104T_YF]	0.356
IFLADYRIMEG [ALOX12B_Y318_YF]	0.478
RGDCMYAPLLG [AR_Y269]	10.4
SGIFQYNIAKF [FOXL2_Y83_I84N_YF]	0.435
ILLAGCLVMVI [SLC28A3_Y113_Y113C]	0.486
HGDSAYHSQRH [ERBB3_Y1132_R1127H]	0.789
KILGRYYETGS [PAX2_Y72]	0.548
APGNAYGDAGF [SYP_Y250_D248N_YF]	0.348
PKEQKYSFLQD [GH1_Y68_N73D]	0.858
AMIADYMFWLG [SPATA16_Y290]	2.52
RASDFYSQQMA [GBP6_Y334_A331S_YF]	0.957
RESSGYLRLAF [MEP1A_Y481]	1.07
FPILNYKDIRK [CFAP221_Y798_M795I]	0.453
SSSGGYGGGYG [KRT19_Y61_A60G]	0.342
VTSLKYSTSPF [BRIP1_Y916_YF]	0.412
LLREWYLPDPY [SIX3_Y225_Q227P]	0.351
WQLEIYRASRP [ERCC4_Y594_R589W]	0.521
DRLASYPDKVR [KRT14_Y129_L130P]	0.383
MSRDIYSTDYY [NTRK1_Y676]	9.04
VLNKGYRMVVN [HINT1_Y94_G89V]	0.339
GKSHIYFWTLE [EML2_Y230]	0.669
KIVATYRLCSE [DNAH3_Y1586]	0.565
GRRGQYVMPSE [TTC7A_Y396_L399P]	0.465
KTTGGYAGGLS [KRT8_Y419_S417G]	0.523
NHYKIYNLYAE [PTEN_Y68_C71Y]	0.461
VEDQYYCVDCY [FHL1_Y208]	3.19
DERQPYVHMNG [IGF1R_Y1346_A1347V]	0.428
LVQAEYWHDRI [PPT1_Y185_P189R]	0.522

The sequences below were run on c-Abl (mouse) in the same assay as above.

Sequence	phosphorylation enrichment
YEDALYTVLHR [UNC13D_Y61]	11.5
PQGVRYTFTID [DCX_Y103_I104T_YF]	1.55
IFLADYRIMEG [ALOX12B_Y318_YF]	0.641
RGDCMYAPLLG [AR_Y269]	5.89
SGIFQYNIAKF [FOXL2_Y83_I84N_YF]	0.739
ILLAGCLVMVI [SLC28A3_Y113_Y113C]	0.995
HGDSAYHSQRH [ERBB3_Y1132_R1127H]	1.32
KILGRYYETGS [PAX2_Y72]	0.636
APGNAYGDAGF [SYP_Y250_D248N_YF]	0.443
PKEQKYSFLQD [GH1_Y68_N73D]	1.05
AMIADYMFWLG [SPATA16_Y290]	1.24
RASDFYSQQMA [GBP6_Y334_A331S_YF]	0.738
RESSGYLRLAF [MEP1A_Y481]	1.23
FPILNYKDIRK [CFAP221_Y798_M795I]	0.486
SSSGGYGGGYG [KRT19_Y61_A60G]	0.374
VTSLKYSTSPF [BRIP1_Y916_YF]	0.482
LLREWYLPDPY [SIX3_Y225_Q227P]	0.969
WQLEIYRASRP [ERCC4_Y594_R589W]	0.997
DRLASYPDKVR [KRT14_Y129_L130P]	0.482
MSRDIYSTDYY [NTRK1_Y676]	0.733
VLNKGYRMVVN [HINT1_Y94_G89V]	0.361
GKSHIYFWTLE [EML2_Y230]	0.818
KIVATYRLCSE [DNAH3_Y1586]	0.714
GRRGQYVMPSE [TTC7A_Y396_L399P]	0.482
KTTGGYAGGLS [KRT8_Y419_S417G]	0.649
NHYKIYNLYAE [PTEN_Y68_C71Y]	0.56
VEDQYYCVDCY [FHL1_Y208]	1.1
DERQPYVHMNG [IGF1R_Y1346_A1347V]	0.503
LVQAEYWHDRI [PPT1_Y185_P189R]	0.868
